In article PMC9409550 (PLoS ONE, 2022):

Assays:
[1] = molecular target: SARS-CoV-2 Omicron BA.1 RBD, yeast-displayed (SARS-CoV-2, UniProt P0DTC2); experiment: flow cytometry on cells; details: one partner purified
[2] = molecular target: SARS-CoV-2 Omicron BA.2 RBD, yeast-displayed (SARS-CoV-2, UniProt P0DTC2); experiment: flow cytometry on cells; details: one partner purified

B1: CDY14HL-Fc1 (Fc fusion)
chain: QSTIEEQAKTFLDMFNHKAEDLFYQSSLAAWNYNTNITEENVQNMNNAGDKWSAFLKEQSTFAQMYPLQEIQNPTVKLQLQALQQNGSSVLSEDKSKRLNTILNTMSTIYSTGKVCNPDNPQECLLLEPGLNEIMANSLDYNERLWAWESWRSEVGKQLRPLYEEYVVLKNEMARANHYEDYGDYWRGDYEVNGVDGYDYSRGQLIEDVEHTFEEIKPLYEHLHAYVRAKLMNAYPSYISPIGCLPAHLLGDMWGRFWTNLYSLTVPFGQKPNIDVTDAMVDQAWDAQRIFKEAEKFFVSVGLPNMTQGFWEYSMLTDPGNVQKAVCLPTAWDLGKGDFRILMCTKVTMDDFLTAHHEMGHIQYDMAYAAQPFLLRNGANEGFHEAVGEIMSLSAATPKHLKSIGLLSPDFQEDNETEINFLLKQALTIVGTLPFTYMLEKWRWMVFKGEIPKDQWMKKWWEMKREIVGVVEPVPHDETYCDPASLFHVSNDYSFIRYYTRTLYQFQFQEALCQAAKHEGPLHKCDISNSTEAGQKLFNMLRLGKSEPWTLALENVVGAKNMNVRPLLNYFEPLFTWLKDQNKNSFVGWSTDWSPYAD
Question: What does the source list for B1?
Answer: Kd [1]: 0.031 nM; Kd [2]: 0.024 nM
